{"source": "the supplement of paper PMC12042874", "note": "± gives the uncertainty stated by the source.", "data": [{"test": "amyloid nucleation score (Sup35N fusion, yeast selection) (log enrichment); library NNK2; higher = more nucleation; inactive = no reads after selection", "procedure,_shortened": "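The nucleation score is a DiMSum log enrichment of output over input reads, centred on the mode score of non-aggregating sequences. Sequences under 100 input reads were excluded, and reads came from Illumina sequencing of plasmid inserts. Psi-negative yeast expressing Sup35N fused to peptides of 20 random codons were induced with 100 μM copper sulfate for 24 hours and grown 7 days at 30°C on medium lacking adenine and uracil. Random libraries had three technical output replicates.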", "values": [{"substance": "MLTFSTNDFVRFVMHVAQWD", "amyloid nucleation score": "2.1 ± 0.22"}, {"substance": "VSFRHQCWNACNSDSVGEEI", "amyloid nucleation score": "0.892 ± 0.48"}, {"substance": "MSGYVVFDMALKTRELMPAS", "amyloid nucleation score": "1.87 ± 0.48"}, {"substance": "RNGCLTIEW", "amyloid nucleation score": "1.78 ± 0.12"}, {"substance": "TTEWFHESFREQFVMESFVS", "amyloid nucleation score": "-1.26 ± 0.41"}, {"substance": "SVVWCWCSEW", "amyloid nucleation score": "0.602 ± 0.81"}, {"substance": "YITLQLVASRRRS", "amyloid nucleation score": "6.186 ± 0.045"}, {"substance": "SVICELLQDRFTSLHGMYGY", "amyloid nucleation score": "0.119 ± 0.31"}, {"substance": "NKVFSFDYVVNNE", "amyloid nucleation score": "inactive"}, {"substance": "YRCIMVATMWGPRVELGR", "amyloid nucleation score": "0.522 ± 0.39"}, {"substance": "ALLYYTAVVDKNYTSDLSHD", "amyloid nucleation score": "-0.899 ± 0.37"}, {"substance": "TSHSFVLVY", "amyloid nucleation score": "-0.705 ± 0.33"}, {"substance": "SLLGV", "amyloid nucleation score": "-1.3 ± 0.34"}, {"substance": "RLLLRALYNPEYSRTQC", "amyloid nucleation score": "-1.43 ± 0.64"}, {"substance": "DFVIESLNMYYWCTRGVVKK", "amyloid nucleation score": "inactive"}, {"substance": "VRLLLYWVAVRWRETDCCCS", "amyloid nucleation score": "0.315 ± 0.48"}, {"substance": "VCFVICDSPSFYV", "amyloid nucleation score": "7.901 ± 0.044"}, {"substance": "TSFLNLIFIYLALKRWLILF", "amyloid nucleation score": "4.74 ± 0.06"}, {"substance": "LDPKIRWLWK", "amyloid nucleation score": "0.204 ± 0.6"}, {"substance": "REVIRGLCMYKARWIRVGVG", "amyloid nucleation score": "0.947 ± 0.21"}, {"substance": "YRAMESNRKRTPVKPVRCVV", "amyloid nucleation score": "2.85 ± 0.11"}, {"substance": "MLNSMVGQNFVGYNHALFFH", "amyloid nucleation score": "4.16 ± 0.089"}, {"substance": "LCVKVFRRFYRHVHIVHVSQ", "amyloid nucleation score": "-0.337 ± 0.4"}, {"substance": "PDNLCMKPFLIAGYYVPTTA", "amyloid nucleation score": "-1.55 ± 0.61"}, {"substance": "FYSVNCFFFCHSIVILEKLF", "amyloid nucleation score": "3.33 ± 0.15"}, {"substance": "LMATHQPGTFMAGCTTGSEH", "amyloid nucleation score": "0.914 ± 0.18"}, {"substance": "CIPRRGY", "amyloid nucleation score": "0.713 ± 0.74"}, {"substance": "ACMIEFRILRYRREMMSICS", "amyloid nucleation score": "6.489 ± 0.039"}, {"substance": "DPVSYILDWASRGNS", "amyloid nucleation score": "0.523 ± 0.64"}, {"substance": "QNQVGIRGILHHMMNSLRTQ", "amyloid nucleation score": "3.87 ± 0.055"}, {"substance": "VEGRYAPKRSYVTPGWDV", "amyloid nucleation score": "-0.05 ± 0.55"}, {"substance": "WFFTSS", "amyloid nucleation score": "-0.526 ± 0.76"}, {"substance": "GLREKDN", "amyloid nucleation score": "-0.036 ± 0.32"}, {"substance": "NKLYFVGKWNGFVSSVCSLV", "amyloid nucleation score": "-0.942 ± 0.41"}, {"substance": "GRFLLSLATVSGLCTSRLEI", "amyloid nucleation score": "-0.169 ± 0.39"}, {"substance": "ELLYWCANHDAGIVRVEFWW", "amyloid nucleation score": "1.48 ± 0.1"}, {"substance": "FHVTVRFRSYCIFDPRGCVI", "amyloid nucleation score": "1.81 ± 0.21"}, {"substance": "SRPWNYCRDLWTSVHTGLLS", "amyloid nucleation score": "0.547 ± 0.36"}, {"substance": "FVSRRIVAIPLWLLVSEITS", "amyloid nucleation score": "-0.201 ± 0.38"}, {"substance": "WMRRAVAAND", "amyloid nucleation score": "0.186 ± 0.54"}, {"substance": "WDSVRSWKPFPHTSNKWFIL", "amyloid nucleation score": "-0.679 ± 0.48"}, {"substance": "RLFRAFNLCYAAIRVGASPQ", "amyloid nucleation score": "0.287 ± 0.26"}, {"substance": "LLGCYNYSFRWDSRASASR", "amyloid nucleation score": "-0.207 ± 0.55"}, {"substance": "SFALGLQRNVNCKDD", "amyloid nucleation score": "-0.06 ± 0.54"}, {"substance": "YLSTFCGVFIYLVNIPLGRA", "amyloid nucleation score": "4.48 ± 0.058"}, {"substance": "VCSTEV", "amyloid nucleation score": "0.32 ± 0.74"}, {"substance": "SSCKARMVFMLGRYGSGRNL", "amyloid nucleation score": "0.112 ± 0.79"}, {"substance": "GIDWFTTVMFPAIWVTDILL", "amyloid nucleation score": "4.593 ± 0.044"}, {"substance": "PLDTYLWAYLLPWWSLCTSI", "amyloid nucleation score": "inactive"}, {"substance": "YYCRCYSGVLVTRAYQGNPE", "amyloid nucleation score": "-0.168 ± 1.1"}, {"substance": "WWHAAFFVAAFPNA", "amyloid nucleation score": "2.19 ± 0.17"}, {"substance": "LSSTRDR", "amyloid nucleation score": "-1.24 ± 0.48"}, {"substance": "TSVVFWWGKGGKVGEPNEAG", "amyloid nucleation score": "0.147 ± 1.1"}, {"substance": "MGTPTTEIGALTMGSEPFV", "amyloid nucleation score": "1.24 ± 0.39"}, {"substance": "SEVILYGMHSNINLPI", "amyloid nucleation score": "0.063 ± 1.1"}, {"substance": "CFTSWMRPRKSYLTDNRCIN", "amyloid nucleation score": "-0.55 ± 0.79"}, {"substance": "LVANSSVHVNSSTSNNRLAV", "amyloid nucleation score": "-0.917 ± 0.56"}, {"substance": "YIFFSEKISTMSYSDKLRMA", "amyloid nucleation score": "5.89 ± 0.083"}, {"substance": "QGILGSFIGKRCGFTRLKTL", "amyloid nucleation score": "inactive"}, {"substance": "QCVTSCCSSHEWHSTRQMIF", "amyloid nucleation score": "-0.502 ± 0.46"}, {"substance": "DTVLAI", "amyloid nucleation score": "0.035 ± 0.74"}, {"substance": "VQICLGNPNWGNPANRSFVV", "amyloid nucleation score": "1.95 ± 0.2"}, {"substance": "LDLICMDLWFWTNTS", "amyloid nucleation score": "-0.006 ± 0.4"}, {"substance": "TYTMGRHNFVMSLSFFSHSA", "amyloid nucleation score": "4.861 ± 0.044"}, {"substance": "NIFFVRCYFNVLYNGALCHS", "amyloid nucleation score": "7.025 ± 0.043"}, {"substance": "LTYAYNISYFNWVYCGYWFC", "amyloid nucleation score": "6.448 ± 0.042"}, {"substance": "GKGSRFRYSIGG", "amyloid nucleation score": "0.943 ± 0.47"}, {"substance": "QLFHAWTTWPSGDHNIAWRY", "amyloid nucleation score": "3.3 ± 0.14"}, {"substance": "LSAGPALHSYLSGNVFSIEL", "amyloid nucleation score": "2.69 ± 0.069"}, {"substance": "NNYAADGRCNYWGSISLKVR", "amyloid nucleation score": "inactive"}, {"substance": "HKCRWSGPAVGSQGKDVIIL", "amyloid nucleation score": "1.12 ± 0.44"}, {"substance": "WGESHWVASFFKFVRGSWDG", "amyloid nucleation score": "-0.112 ± 0.54"}, {"substance": "IRWAFWSRYGSWAKLSLRIV", "amyloid nucleation score": "-0.995 ± 0.56"}, {"substance": "GLSNFYVFAFYRVFFSLIWA", "amyloid nucleation score": "3.3 ± 0.067"}, {"substance": "FISDVPHERLRLTFIF", "amyloid nucleation score": "-1.41 ± 0.64"}, {"substance": "GCFPSLWWLLPGCFACYSLR", "amyloid nucleation score": "0.721 ± 0.8"}, {"substance": "LSSTYRC", "amyloid nucleation score": "-0.24 ± 0.39"}, {"substance": "WVDGVLGFKSTLARQSETGG", "amyloid nucleation score": "-0.121 ± 1.1"}, {"substance": "SMVTFDYV", "amyloid nucleation score": "inactive"}, {"substance": "IGRRLVDFWDVGPFCSHVII", "amyloid nucleation score": "-1.48 ± 1.1"}, {"substance": "IYHLPNR", "amyloid nucleation score": "5.988 ± 0.035"}, {"substance": "KGRVVSCIWGSCPGTSGR", "amyloid nucleation score": "-0.235 ± 1.1"}, {"substance": "KYVALALERFMLAAHGTSLT", "amyloid nucleation score": "-0.235 ± 0.33"}, {"substance": "NSVWANARRLTVCGAERGGT", "amyloid nucleation score": "1.24 ± 0.17"}, {"substance": "CCSISTDLCDKYFVTFCLLS", "amyloid nucleation score": "inactive"}]}]}
